By Kd is commonly meant the constant that tells how readily two partners part at equilibrium. A low value points to a tighter complex.

The source of these data is article PMC2171422 (The Journal of Cell Biology, 2005).

In the assay the target is T1, protein A–Sro7p (yeast (budding yeast), UniProt Q12038 1-1033).
T1 sequence: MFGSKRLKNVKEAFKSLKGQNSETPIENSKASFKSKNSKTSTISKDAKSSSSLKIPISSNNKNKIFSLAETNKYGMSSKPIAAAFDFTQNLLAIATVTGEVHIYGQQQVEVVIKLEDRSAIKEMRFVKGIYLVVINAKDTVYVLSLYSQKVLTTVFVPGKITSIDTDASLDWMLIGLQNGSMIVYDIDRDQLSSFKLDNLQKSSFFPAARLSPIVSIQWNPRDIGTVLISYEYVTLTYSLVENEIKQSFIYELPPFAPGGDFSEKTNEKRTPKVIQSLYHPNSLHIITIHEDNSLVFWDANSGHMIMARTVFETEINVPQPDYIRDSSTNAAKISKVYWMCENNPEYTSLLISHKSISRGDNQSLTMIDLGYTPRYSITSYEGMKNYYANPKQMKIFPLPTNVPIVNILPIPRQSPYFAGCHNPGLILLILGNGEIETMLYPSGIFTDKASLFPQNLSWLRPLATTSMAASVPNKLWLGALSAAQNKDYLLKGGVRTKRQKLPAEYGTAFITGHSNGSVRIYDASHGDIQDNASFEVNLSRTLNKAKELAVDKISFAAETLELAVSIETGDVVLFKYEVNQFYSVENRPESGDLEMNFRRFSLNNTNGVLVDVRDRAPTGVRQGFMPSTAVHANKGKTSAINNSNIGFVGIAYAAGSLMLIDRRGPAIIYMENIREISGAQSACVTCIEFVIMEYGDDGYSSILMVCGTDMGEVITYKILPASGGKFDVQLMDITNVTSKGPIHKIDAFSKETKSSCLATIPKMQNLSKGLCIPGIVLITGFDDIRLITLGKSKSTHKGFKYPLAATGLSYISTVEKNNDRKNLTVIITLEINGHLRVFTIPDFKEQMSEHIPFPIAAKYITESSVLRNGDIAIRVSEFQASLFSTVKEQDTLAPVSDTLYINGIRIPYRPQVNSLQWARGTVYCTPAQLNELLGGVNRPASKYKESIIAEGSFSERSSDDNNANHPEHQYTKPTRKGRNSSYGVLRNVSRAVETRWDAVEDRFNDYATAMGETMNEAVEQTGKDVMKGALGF
The assay can be described thus: pull-down.

B1: Exo84p NH2-terminal domain (aa 1–320) GST fusion protein (domain or fragment)
chain: MVEFSLKKARNNWKHVKKSASSPAKQKTPPSPAKPKQKTKKNPYSDLKDPATSYTLPTINARERSRVATSMQRRLSIHNTNYAPPTLDYSMPLPDMPNMIVPNDNVDSSHNNSSFTTENESVSSKGPSNSLNLSTADLSLNDSSYNKVPARSAMRNTVNPSGSNDPFNNSTSLRKMLANPHFNAKDFVHDKLGNASAITIDKFTSNLTDLSIQVQEEVKLNINKSYNEIMTVNNDLNVAMLELKRVRANINDLNEVLDQCTKIAEKRLQLQDQIDQERQGNFNNVESHSNSPALLPPLKAGQNGNLMRRDRSSVLILEKF
Consider B1, for which the Kd stood at 46 ± 6 nM.
